Data on one molecule can be found in PMC3416856.

The experiment concerns the target T1, KaiC of unphosphorylated initial condition (Synechococcus elongatus) (UniProt Q79PF4).
T1 sequence (chain, unphosphorylated at the start of the incubation): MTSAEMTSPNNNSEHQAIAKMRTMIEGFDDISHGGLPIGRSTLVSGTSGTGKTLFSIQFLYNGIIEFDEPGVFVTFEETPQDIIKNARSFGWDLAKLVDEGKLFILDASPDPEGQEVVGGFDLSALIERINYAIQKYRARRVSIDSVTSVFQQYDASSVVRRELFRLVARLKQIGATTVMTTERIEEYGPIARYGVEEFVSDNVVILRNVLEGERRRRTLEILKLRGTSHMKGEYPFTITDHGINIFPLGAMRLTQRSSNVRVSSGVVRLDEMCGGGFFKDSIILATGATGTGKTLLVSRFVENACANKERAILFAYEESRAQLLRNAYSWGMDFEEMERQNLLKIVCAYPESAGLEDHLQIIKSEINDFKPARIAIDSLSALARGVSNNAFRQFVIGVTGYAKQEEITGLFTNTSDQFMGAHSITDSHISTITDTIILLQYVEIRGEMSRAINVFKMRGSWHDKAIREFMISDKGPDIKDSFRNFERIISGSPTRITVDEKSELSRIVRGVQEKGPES

B1: wild type KaiA (natural protein)
chain: MLSQIAICIWVESTAILQDCQRALSADRYQLQVCESGEMLLEYAQTHRDQIDCLILVAANPSFRAVVQQLCFEGVVVPAIVVGDRDSEDPDEPAKEQLYHSAELHLGIHQLEQLPYQVDAALAEFLRLAPVETMADHIMLMGANHDPELSSQQRDLAQRLQERLGYLGVYYKRDPDRFLRNLPAYESQKLHQAMQTSYREIVLSYFSPNSNLNQSIDNFVNMAFFADVPVTKVVEIHMELMDEFAKKLRVEGRSEDILLDYRLTLIDVIAHLCEMYRRSIPRET
For B1, the half-maximum concentration of KaiA for the phosphorylation of KaiC (3.5 µM) at 16 hr, 30°C (SDS-PAGE densitometry, sigmoid fit), against that for the highly phosphorylated initial condition was 5 fold.
